The values that follow are results of earlier work, collected in article PMC3103538.

Targets include Glu32 (UniProt position 280, KKLVGER----); Glu20 (UniProt position 268, KNYHLENEVAR); Tyr17 (UniProt position 265, LLSKNYHLENE); Asp7 (UniProt position 255, MKQLEDKVEEL); Glu22 (UniProt position 270, YHLENEVARLK); Cterm32 (UniProt position 280, KKLVGER----); Glu11 (UniProt position 259, EDKVEELLSKN); Lys3 (UniProt position 251, KLQSMKQLEDK); Glu10 (UniProt position 258, LEDKVEELLSK); Lys27 (UniProt position 275, EVARLKKLVGE); Nterm0 (UniProt position 248, RARKLQRMKQL); His18 (UniProt position 266, LSKNYHLENEV); Lys28 (UniProt position 276, VARLKKLVGER); Glu6 (UniProt position 254, SMKQLEDKVEE); Lys15 (UniProt position 263, EELLSKNYHLE); Lys8 (UniProt position 256, KQLEDKVEELL).

For orientation: pKa means the negative logarithm of the acid dissociation constant. “GCN4 leucine zipper (33-residue fragment, GCN4p1-type) (Saccharomyces cerevisiae; R1S; insertion of Gly0 before residue 1 (Arg1 substituted by the dipeptide Gly0-Ser1))”: the pKa in the data set with Glu32 is listed as 4.62; in the data set with Glu20, 4.38; with Tyr17, 9.82; with Asp7, 3.48; with Glu22, 4.2; with Cterm32, 4.03. The pKa is reported as 4.05 with Glu11; 10.78 in the data set with Lys3; 3.94 with Glu10; 11.1 in the data set with Lys27; 7.88 with Nterm0; 6.24 with His18. Also, the pKa with Lys28 was 10.64; with Glu6, 4.6; in the data set with Lys15, 10.62; with Lys8, 11.26.
